According to patent publication US20040224408A1, “THAP proteins as nuclear receptors for chemokines and roles in transcriptional regulation, cell proliferation and cell differentiation” (published 2004):

T1: human THAP1 (THanatos (death)-Associated Protein-1), full length (human, UniProt Q9NVV9 1-213)
T1 construct: also called hTHAP1; FLJ10477
T1 sequence: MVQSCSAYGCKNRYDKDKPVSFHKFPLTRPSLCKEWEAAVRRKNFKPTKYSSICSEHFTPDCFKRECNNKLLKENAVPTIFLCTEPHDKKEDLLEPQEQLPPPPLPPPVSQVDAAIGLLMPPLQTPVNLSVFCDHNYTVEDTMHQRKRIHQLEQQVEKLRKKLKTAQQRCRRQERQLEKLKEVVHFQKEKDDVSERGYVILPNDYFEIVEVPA

T2: human chemokine SLC/CCL21, mature form (amino acids 24-134) (human, UniProt O00585 24-134)
T2 construct: also called SLC/6Ckine; SLC/CCL21 wild type
T2 sequence: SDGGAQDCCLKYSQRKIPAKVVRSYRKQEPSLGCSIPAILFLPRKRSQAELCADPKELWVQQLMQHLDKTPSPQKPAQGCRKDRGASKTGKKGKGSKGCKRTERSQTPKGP

T3: GST-THAP1 fusion protein (pGEX-2T-THAP1) (human, UniProt Q5RCE4 1-213 (Pongo abelii entry))
T3 construct: Expressed in E. coli DH5alpha and immobilized on glutathione sepharose; also called GST-THAP1 wild-type; not shown: Glutathione S-transferase (GST) encoded by the pGEX-2T prokaryotic expression vector (Amersham Pharmacia Biotech); N-ter
T3 sequence: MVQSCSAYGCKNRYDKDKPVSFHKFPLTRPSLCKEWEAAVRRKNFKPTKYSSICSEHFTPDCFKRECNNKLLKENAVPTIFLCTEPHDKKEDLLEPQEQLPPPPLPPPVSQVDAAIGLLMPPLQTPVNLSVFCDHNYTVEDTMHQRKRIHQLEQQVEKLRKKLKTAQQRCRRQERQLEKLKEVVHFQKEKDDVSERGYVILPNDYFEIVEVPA


Legend:
human THAP1 (THanatos …) [1] = target: T1, human THAP1 (THanatos …); experiment: yeast two-hybrid, pGADT7-THAP1 mutant with pGBKT7-THAP1 wild-type
Experimental: Two-hybrid interaction between THAP1 mutants and THAP1 wild type was tested by cotransformation of AH109 with pGADT7-THAP1-C1, -C2, -C3, -N1, -N2 or -N3 and pGBKT7-THAP1 wild-type and selection of transformants by His and Ade double auxotrophy according to manufacturer's instructions ([…] two-hybrid system 3, Clontech).

[2] = target: T2, human chemokine SLC/CCL21, mature form …; experiment: yeast two-hybrid, pGADT7-THAP1 mutant with pGBKT7-SLC/CCL21
Experimental: Two-hybrid interaction between THAP1 mutants and chemokine SLC/CCL21 was tested by cotransformation of AH109 with pGADT7-THAP1-C1, -C2, -C3, -N1, -N2 or -N3 and pGBKT7-SLC/CCL21 and selection of transformants by His and Ade double auxotrophy according to manufacturer's instructions ([…] two-hybrid system 3, Clontech). pGBKT7-SLC/CCL21 vector was generated by subcloning the BamHI SLC/CCL21 fragment from pGBT9-SLC (see example 1) into the unique BamHI cloning site of vector pGBKT7 (Clontech).

[3] = target: T3, GST-THAP1 fusion protein (pGEX-2T-THAP1); experiment: GST pull-down, immobilized GST-THAP1, in vitro translated 35S-labelled mutant
Experimental: To confirm the results obtained in yeast, THAP1 mutants were also tested in in vitro GST pull down assays. Wild type THAP1 expressed as a GST-tagged fusion protein and immobilized on glutathione sepharose (as described in example 16), was incubated with radiolabeled in vitro translated THAP1 mutants. In vitro-translated THAP1 mutants were generated with the TNT-coupled reticulocyte lysate system (Promega, Madison, Wis., USA) using pGADT7-THAP1-C1, -C2, -C3, -N1, -N2 or -N3 vector as template. 25 μl of each ³⁵S-labelled THAP1 mutant was incubated with immobilized GST or GST-THAP1 wild-type protein overnight at 4° C., in the following binding buffer: 10 mM NaPO4 pH 8.0, 140 mM NaCl, 3 mM MgCl2, 1 mM dithiothreitol (DTT), 0.05% NP40, and 0.2 mM phenylmethyl sulphonyl fluoride (PMSF), 1 mM Na Vanadate, 50 mM β Glycerophosphate, 25 μg/ml chimotrypsine, 5 μg/ml aprotinin, 10 μg/ml Leupeptin. Beads were then washed 5 times in 1 ml binding buffer. Bound proteins were eluted with 2×Laemmli SDS-PAGE sample buffer, fractionated by 10% SDS-PAGE and visualized by fluorography using Amplify (Amersham Pharmacia Biotech). As expected, THAP1-C1, -C2, -C3, -and -N3 interacted with GST/THAP1 (FIG. 16B).

[4] = target: T3, GST-THAP1 fusion protein (pGEX-2T-THAP1); experiment: GST pull-down, immobilized GST-THAP1, in vitro translated 35S-labelled IFNγ
Experimental: To confirm the interaction observed in yeast two-hybrid system, we performed in vitro GST pull down assays. THAP1, expressed as a GST-tagged fusion protein and immobilized on glutathione sepharose, was incubated with radiolabeled chemokines that were translated in vitro.
In vitro-translated chemokines were generated with the TNT-coupled reticulocyte lysate system (Promega, Madison, Wis., USA) using as templates pGBKT7-CCL21, -CCL19, -CXCL9, -CXCL10 and CXCL11 chemokine vectors (see Example 32) or pCMV-SPORT6-CCL5 plasmid (Image clone No. 4185200). In vitro-translated IFNγ cytokine was generated similarly using as template plasmid pGBKT7-IFNγ. A 25 μvolume of ³⁵S-labelled chemokine was incubated with immobilized GST-THAP1 or GST proteins overnight at 4° C., in the following binding buffer: 10 mM NaPO4 pH 8.0, 140 mM NaCl, 3 mM MgCl₂, 1 mM dithiothreitol (DTT), 0.05% NP40, and 0.2 mM phenylmethyl sulphonyl fluoride (PMSF), 1 mM Na vanadate, 50 mM β-glycerophosphate, 25 μg/ml chymotrypsine, 5 μg/ml aprotinin, and 10 μg/ml leupeptin. Beads were then washed 5 times in 1 ml binding buffer. Bound proteins were eluted with 2×Laemmli SDS-PAGE sample buffer, fractionated by 10% SDS-PAGE and visualized by fluorography using Amplify (Amersham Pharmacia Biotech). GST/THAP1 specifically bound to chemokines CCL21, CCL19, CCL5, CXCL9, CXCL10 and CXCL11 but not cytokine IFNγ (FIGS. 19 and 20). […]

human THAP1 (THanatos …) [5] = target: T1, human THAP1 (THanatos …); experiment: yeast two-hybrid, pGADT7-THAP1 with pGBKT7-IFNγ
Excerpt: […]

[6] = target: T4, Glutathione S-transferase (GST) control protein (pGEX-2T) (UniProt P08515 1-218 = GST); experiment: GST pull-down, immobilized GST control, in vitro translated 35S-labelled IFNγ
T4 construct: Negative control immobilized on glutathione sepharose; also called GST beads; immobilized GST alone
T4 sequence (P08515 whole entry): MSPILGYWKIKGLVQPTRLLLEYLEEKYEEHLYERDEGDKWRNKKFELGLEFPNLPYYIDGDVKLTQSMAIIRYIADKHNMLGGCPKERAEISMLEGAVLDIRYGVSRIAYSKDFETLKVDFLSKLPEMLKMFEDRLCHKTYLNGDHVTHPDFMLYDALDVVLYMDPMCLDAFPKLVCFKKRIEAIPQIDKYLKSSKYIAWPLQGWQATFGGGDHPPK
Experimental: In vitro-translated chemokines were generated with the TNT-coupled reticulocyte lysate system (Promega, Madison, Wis., USA) using as templates pGBKT7-CCL21, -CCL19, -CXCL9, -CXCL10 and CXCL11 chemokine vectors (see Example 32) or pCMV-SPORT6-CCL5 plasmid (Image clone No. 4185200). In vitro-translated IFNγ cytokine was generated similarly using as template plasmid pGBKT7-IFNγ. A 25 μvolume of ³⁵S-labelled chemokine was incubated with immobilized GST-THAP1 or GST proteins overnight at 4° C., in the following binding buffer: 10 mM NaPO4 pH 8.0, 140 mM NaCl, 3 mM MgCl₂, 1 mM dithiothreitol (DTT), 0.05% NP40, and 0.2 mM phenylmethyl sulphonyl fluoride (PMSF), 1 mM Na vanadate, 50 mM β-glycerophosphate, 25 μg/ml chymotrypsine, 5 μg/ml aprotinin, and 10 μg/ml leupeptin. Beads were then washed 5 times in 1 ml binding buffer. Bound proteins were eluted with 2×Laemmli SDS-PAGE sample buffer, fractionated by 10% SDS-PAGE and visualized by fluorography using Amplify (Amersham Pharmacia Biotech). GST/THAP1 specifically bound to chemokines CCL21, CCL19, CCL5, CXCL9, CXCL10 and CXCL11 but not cytokine IFNγ (FIGS. 19 and 20). […] CXCL10 also bound to immobilized GST-THAP1 (indicated by ++ in the column labelled “In vitro binding to GST-THAP1”).

binding result [2] | binding result [3] | binding result [4] | binding result [6] | Binder | binding result (human THAP1 (THanatos …) [1]) | binding result (human THAP1 (THanatos …) [5])
no binding | no binding |  |  | THAP1-N1 deletion mutant (amino acids 1-90) (other, Tested as a Gal4-BD or Gal4-AD fusion, as in vitro translated 35S-labelled protein and as an EGFP fusion) MVQSCSAYGCKNRYDKDKPVSFHKFPLTRPSLCKEWEAAVRRKNFKPTKYSSICSEHFTPDCFKRECNNKLLKENAVPTIFLCTEPHDKK | no binding | 
 |  | no binding | no binding | human cytokine IFNγ (amino acids 21-166) (ligand, Negative control; The range is stated on the GenBank entry; Tested as a Gal4-BD fusion (pGBKT7-IFNγ) and as in vitro translated 35S-labelled protein from that vector; also called interferon gamma; hIFNγ) CYCQDPYVKEAENLKKYFNAGHSDVADNGTLFLGILKNWKEESDRKIMQSQIVSFYFKLFKNFKDDQSIQKSVETIKEDMNVKFFNSNKKKRDDFEKLTNYSVTDLNVQRKAIHELIQVMAELSPAAKTGKRKRSQMLFQGRRASQ |  | no binding
